This passage reports Kd results from patent publication US20180319878A1 (NANYANG TECHNOLOGICAL UNIVERSITY, published 2018).

As a reminder, the Kd is a measure of binding affinity in units of concentration.

This test has as its target T1, recombinant human cANGPTL4 (C terminal region of angiopoietin-like 4) (human, UniProt Q9BY76 186-406, limits assumed).
T1 construct: domain: c terminal region; Immobilized on the chip in SPR; added at 6 µg/ml to HMVECs in cell assays; also called rh-cANGPTL4; rhcANGPTL4
T1 sequence (looked up): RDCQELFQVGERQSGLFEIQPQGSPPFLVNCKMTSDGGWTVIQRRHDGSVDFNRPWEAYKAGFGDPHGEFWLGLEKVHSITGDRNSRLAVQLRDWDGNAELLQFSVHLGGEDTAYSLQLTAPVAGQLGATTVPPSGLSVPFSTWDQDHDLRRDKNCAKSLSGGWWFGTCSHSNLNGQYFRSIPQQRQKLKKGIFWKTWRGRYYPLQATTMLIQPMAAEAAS
Briefly: SPR (BIAcore 2000), immobilized cANGPTL4, global fitting. Here is the method:
Six concentrations (0.16, 0.32, 0.63, 1.25, 2.50 and 5.0 μM) of recombinant integrin β1, first extracellular domain of VE-cadherin (ECD1), extracellular repeat 1 domain of VE-cadherin (EC1), occludin or JAM-A were used.
Global fitting of the SPR data was performed as previously described to determine the KD. Preinjection or preincubation with the indicated antibodies or preimmune IgG was performed to determine specific interactions. Each sensorgram was corrected by subtracting a sensorgram obtained from a reference flow cell with no immobilized protein. […] Values are mean±S.D. (n=3)
For orientation: SPR reads the build-up and loss of mass on a sensor chip optically.

B1: claudin-5 (SPR analyte) (other, UniProt O00501 1-218, looked up)
chain: MGSAALEILGLVLCLVGWGGLILACGLPMWQVTAFLDHNIVTAQTTWKGLWMSCVVQSTGHMQCKVYDSVLALSTEVQAARALTVSAVLLAFVALFVTLAGAQCTTCVAPGPAKARVALTGGVLYLFCGLLALVPLCWFANIVVREFYDPSVPVSQKYELGAALYIGWAATALLMVGGCLLCCGAWVCTGRPDLSFPVKYSAPRRPTATGDYDKKNYV
For B1, the Kd was found to be 58.7 nM.
